Article PMC6214142, “Transcription of the Human 5-Hydroxytryptamine Receptor 2B (HTR2B) Gene Is under the Regulatory Influence of the Transcription Factors NFI and RUNX1 in Human Uveal Melanoma”

Tests used:
[1] = molecular target: NFIX (Homo sapiens, UniProt Q14938 1-502); test: EMSA; EMSA: 10 mM Hepes pH 7.9, 10% glycerol, 0.1 mM EDTA, 0.5 mM DTT, 0.25 mM PMSF, 50 mM KCl, 2 ug poly(dI:dC); Tris-glycine gels at 4 C; footprinting binding 5 min
[2] = molecular target: NFIB (Homo sapiens, UniProt O00712 1-420); test: EMSA; EMSA: 10 mM Hepes pH 7.9, 10% glycerol, 0.1 mM EDTA, 0.5 mM DTT, 0.25 mM PMSF, 50 mM KCl, 2 ug poly(dI:dC); Tris-glycine gels at 4 C; footprinting binding 5 min at room temperature with 5 ug poly(dI:dC); conditions: protein: recombinant; chain copies: 2; label: 5' 32P as probe; blunt
[3] = molecular target: NFIA (Homo sapiens, UniProt Q12857 1-509); test: as above; conditions: protein: recombinant; chain copies: 2; label: 5' 32P as probe; blunt
[4] = molecular target: NFIC (Homo sapiens, UniProt P08651 1-508); test: as above; conditions: protein: recombinant; chain copies: 2; label: 5' 32P as probe; blunt

Measured: binding result

Chain of NFIA (Q12857 whole entry): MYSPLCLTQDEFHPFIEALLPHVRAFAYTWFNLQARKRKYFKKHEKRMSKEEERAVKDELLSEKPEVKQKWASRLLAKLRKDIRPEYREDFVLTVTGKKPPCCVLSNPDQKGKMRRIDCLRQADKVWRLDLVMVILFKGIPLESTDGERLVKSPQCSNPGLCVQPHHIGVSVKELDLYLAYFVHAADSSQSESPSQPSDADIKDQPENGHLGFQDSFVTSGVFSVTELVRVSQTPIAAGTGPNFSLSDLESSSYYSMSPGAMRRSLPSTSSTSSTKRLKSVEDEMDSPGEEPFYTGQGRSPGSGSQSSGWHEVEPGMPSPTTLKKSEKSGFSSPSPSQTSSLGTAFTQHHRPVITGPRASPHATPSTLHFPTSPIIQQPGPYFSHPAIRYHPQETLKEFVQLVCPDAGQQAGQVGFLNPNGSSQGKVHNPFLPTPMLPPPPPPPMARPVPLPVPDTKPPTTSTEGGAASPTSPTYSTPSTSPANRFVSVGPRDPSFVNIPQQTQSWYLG
Chain of NFIC (P08651 whole entry): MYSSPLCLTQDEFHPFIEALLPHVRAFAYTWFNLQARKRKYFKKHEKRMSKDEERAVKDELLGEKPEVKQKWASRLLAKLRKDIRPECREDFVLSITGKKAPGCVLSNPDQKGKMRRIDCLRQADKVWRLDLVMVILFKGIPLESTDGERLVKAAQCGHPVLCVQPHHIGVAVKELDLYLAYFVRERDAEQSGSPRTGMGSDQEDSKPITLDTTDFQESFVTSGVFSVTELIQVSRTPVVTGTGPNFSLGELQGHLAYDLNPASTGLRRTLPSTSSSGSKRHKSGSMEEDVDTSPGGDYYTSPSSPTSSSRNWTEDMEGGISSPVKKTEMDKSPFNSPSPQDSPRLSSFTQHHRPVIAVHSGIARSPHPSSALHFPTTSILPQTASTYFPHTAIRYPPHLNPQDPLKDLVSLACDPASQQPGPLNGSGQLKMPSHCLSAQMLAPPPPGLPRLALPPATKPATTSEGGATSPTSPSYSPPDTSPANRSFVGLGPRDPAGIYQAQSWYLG

B1: NFI high affinity probe (dsDNA)
DNA 1: TTATTTTGGATTGAAGCCAATATGAG
DNA 2: CTCATATTGGCTTCAATCCAAAATAA
binds: [1] | [2] | [3] | [4]
